In the supplement of paper PMC10567573:

B1: INTS4 (parent)
chain: IRLVDDAFGKICHMVSDGSWVVRV
B2: CLPTM1 (parent)
chain: MNLHVYISEHEHFTDFNATSALFW

Variants of: B1
Assay: protein stability index of a GFP-peptide fusion (GPS, HEK-293T) (PSI 1-6); higher = more stable
Conditions: c terminus: a fixed tail appended
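Further: lentivirally expressed fusions sorted by FACS into six bins by GFP to DsRed ratio, PSI derived from sequencing read proportions per bin multiplied by bin number.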

Variant | protein stability index
IRLVDDAFGKICHMVSDGSWVCRV [V22C] | 3.31
IRLVDDAFGKICHMVSDGSWVDRV [V22D] | 3.6
IRLVDDAFGKICHMVSDGSWVERV [V22E] | 2.56
IRLVDDAFGKICHMVSDGSWVFRV [V22F] | 3.53
IRLVDDAFGKICHMVSDGSWVHRV [V22H] | 2.78
IRLVDDAFGKICHMVSDGSWVIRV [V22I] | 3.27
IRLVDDAFGKICHMVSDGSWVKRV [V22K] | 3.02
IRLVDDAFGKICHMVSDGSWVLRV [V22L] | 2.82
IRLVDDAFGKICHMVSDGSWVRRV [V22R] | 3.28
IRLVDDAFGKICHMVSDGSWVTRV [V22T] | 4.7
IRLVDDAFGKICHMVSDGSWVWRV [V22W] | 2.35
IRLVDDAFGKICHMVSDGSWVYRV [V22Y] | 4.15
IRLVDDAFGKICHMVSDGSWVVAV [R23A] | 4.14
IRLVDDAFGKICHMVSDGSWVVCV [R23C] | 3.87
IRLVDDAFGKICHMVSDGSWVVDV [R23D] | 2.15
IRLVDDAFGKICHMVSDGSWVVEV [R23E] | 2.13
IRLVDDAFGKICHMVSDGSWVVFV [R23F] | 3
IRLVDDAFGKICHMVSDGSWVVGV [R23G] | 2.32
IRLVDDAFGKICHMVSDGSWVVHV [R23H] | 2.94
IRLVDDAFGKICHMVSDGSWVVIV [R23I] | 3.28

Variant | protein stability index
IRLVDDAFGKICHMVSDGSWVVLV [R23L] | 4.2
IRLVDDAFGKICHMVSDGSWVVMV [R23M] | 3.4
IRLVDDAFGKICHMVSDGSWVVNV [R23N] | 2.02
IRLVDDAFGKICHMVSDGSWVVSV [R23S] | 2.39
IRLVDDAFGKICHMVSDGSWVVTV [R23T] | 1.88
IRLVDDAFGKICHMVSDGSWVVRC [V24C] | 2.68
IRLVDDAFGKICHMVSDGSWVVRD [V24D] | 1.47
IRLVDDAFGKICHMVSDGSWVVRF [V24F] | 3.03
IRLVDDAFGKICHMVSDGSWVVRH [V24H] | 2.79
IRLVDDAFGKICHMVSDGSWVVRI [V24I] | 3.12
IRLVDDAFGKICHMVSDGSWVVRK [V24K] | 1.58
IRLVDDAFGKICHMVSDGSWVVRM [V24M] | 1.46
IRLVDDAFGKICHMVSDGSWVVRN [V24N] | 1.42
IRLVDDAFGKICHMVSDGSWVVRP [V24P] | 3.21
IRLVDDAFGKICHMVSDGSWVVRQ [V24Q] | 2.04
IRLVDDAFGKICHMVSDGSWVVRR [V24R] | 3.03
IRLVDDAFGKICHMVSDGSWVVRS [V24S] | 2.31
IRLVDDAFGKICHMVSDGSWVVRT [V24T] | 4
IRLVDDAFGKICHMVSDGSWVVRW [V24W] | 1.57
IRLVDDAFGKICHMVSDGSWVVRY [V24Y] | 3.37

Variants of: B2
Assay: as above
Conditions: c terminus: a fixed tail appended

Variant | protein stability index
DNLHVYISEHEHFTDFNATSALFW [M1D] | 1.72
ENLHVYISEHEHFTDFNATSALFW [M1E] | 1.33
FNLHVYISEHEHFTDFNATSALFW [M1F] | 2.29
GNLHVYISEHEHFTDFNATSALFW [M1G] | 2.8
INLHVYISEHEHFTDFNATSALFW [M1I] | 3.18
KNLHVYISEHEHFTDFNATSALFW [M1K] | 2.95
NNLHVYISEHEHFTDFNATSALFW [M1N] | 3.69
PNLHVYISEHEHFTDFNATSALFW [M1P] | 1.93
QNLHVYISEHEHFTDFNATSALFW [M1Q] | 2.58
RNLHVYISEHEHFTDFNATSALFW [M1R] | 2.51
SNLHVYISEHEHFTDFNATSALFW [M1S] | 2.69
TNLHVYISEHEHFTDFNATSALFW [M1T] | 2.97
VNLHVYISEHEHFTDFNATSALFW [M1V] | 3.6
YNLHVYISEHEHFTDFNATSALFW [M1Y] | 2.55
MCLHVYISEHEHFTDFNATSALFW [N2C] | 2.73
MDLHVYISEHEHFTDFNATSALFW [N2D] | 1.53
MFLHVYISEHEHFTDFNATSALFW [N2F] | 3.32
MGLHVYISEHEHFTDFNATSALFW [N2G] | 2.73
MILHVYISEHEHFTDFNATSALFW [N2I] | 2.04
MLLHVYISEHEHFTDFNATSALFW [N2L] | 2.57
MMLHVYISEHEHFTDFNATSALFW [N2M] | 2.77
MPLHVYISEHEHFTDFNATSALFW [N2P] | 1.55
MQLHVYISEHEHFTDFNATSALFW [N2Q] | 1
MSLHVYISEHEHFTDFNATSALFW [N2S] | 4.89
MTLHVYISEHEHFTDFNATSALFW [N2T] | 2.58
MVLHVYISEHEHFTDFNATSALFW [N2V] | 3.88
MYLHVYISEHEHFTDFNATSALFW [N2Y] | 2.55

Variant | protein stability index
MNCHVYISEHEHFTDFNATSALFW [L3C] | 1.94
MNDHVYISEHEHFTDFNATSALFW [L3D] | 2.44
MNEHVYISEHEHFTDFNATSALFW [L3E] | 2.62
MNFHVYISEHEHFTDFNATSALFW [L3F] | 2.7
MNGHVYISEHEHFTDFNATSALFW [L3G] | 2.78
MNIHVYISEHEHFTDFNATSALFW [L3I] | 3.08
MNKHVYISEHEHFTDFNATSALFW [L3K] | 1.9
MNMHVYISEHEHFTDFNATSALFW [L3M] | 2.18
MNNHVYISEHEHFTDFNATSALFW [L3N] | 1.2
MNPHVYISEHEHFTDFNATSALFW [L3P] | 1.52
MNQHVYISEHEHFTDFNATSALFW [L3Q] | 1.42
MNRHVYISEHEHFTDFNATSALFW [L3R] | 1.96
MNSHVYISEHEHFTDFNATSALFW [L3S] | 2.15
MNTHVYISEHEHFTDFNATSALFW [L3T] | 1.47
MNVHVYISEHEHFTDFNATSALFW [L3V] | 1.14
MNWHVYISEHEHFTDFNATSALFW [L3W] | 1.98
MNLEVYISEHEHFTDFNATSALFW [H4E] | 1.45
MNLFVYISEHEHFTDFNATSALFW [H4F] | 1.89
MNLIVYISEHEHFTDFNATSALFW [H4I] | 2.62
MNLKVYISEHEHFTDFNATSALFW [H4K] | 1.99
MNLLVYISEHEHFTDFNATSALFW [H4L] | 2.97
MNLMVYISEHEHFTDFNATSALFW [H4M] | 2.69
MNLPVYISEHEHFTDFNATSALFW [H4P] | 1.43
MNLQVYISEHEHFTDFNATSALFW [H4Q] | 2.12
MNLRVYISEHEHFTDFNATSALFW [H4R] | 5.47
MNLWVYISEHEHFTDFNATSALFW [H4W] | 4.27
MNLYVYISEHEHFTDFNATSALFW [H4Y] | 4.32
